Measurements as given in patent publication US20200291444A1, “Macrocyclisation Tags” (Oxford University Innovation LTD, priority 2017, published 2020).

What was measured:
[1] = system: CC[C@H](C)[C@H](N)C(=O)N[C@@H](Cc1c[nH]c2ccccc12)C(=O)NCC(=O)N[C@H](C(=O)NCC(=O)N[C@@H](CS)C(=O)N[C@@H](CC(N)=O)C(=O)N1CCC[C@H]1C(=O)N[C@@H](Cc1c[nH]c2ccccc12)C(=O)N[C@H](C(=O)N[C@@H](C)C(=O)N[C@@H](CCC(=O)O)C(=O)N[C@@H](Cc1c[nH]cn1)C(=O)N[C@H](C(=O)N[C@@H](CC(=O)O)C(=O)N[C@@H](CCC(N)=O)C(=O)N[C@H](C(=O)N[C@@H](CC(C)C)C(=O)N[C@@H](C)C(=O)N[C@@H](CO)C(=O)NCC(=O)N[C@@H](CC(N)=O)C(=O)N[C@@H](CC(=O)O)C(=O)N[C@H](C(=O)N[C@@H](CS)C(=O)O)[C@@H](C)CC)[C@@H](C)O)C(C)C)[C@@H](C)O)[C@@H](C)CC; test: GmPOPB kinetic assays (LC-MS); format: biochemical, Galerina marginata; settings: other: room temperature; pH 8.0
Procedure: (§1) Comparison between distinct GmPOPB substrates was performed in 50 mM Tris pH 8.0, 50 mM NaCl, 10 mM DTT with varying concentrations of substrates at room temperature. All reactions were performed in duplicates. Reactions were started by adding GmPOPB (50 nM for GmAMA1_C6S, 1 μM for the 13mer and 14mer, and 20 nM for other substrates) to the assay mixture containing buffer and peptide. Reactions were quenched at several time points by adding 50 μL reaction mixture to 20 μL 6% TFA. Reactants were separated from products for quantification by injecting 50 μL of each quenched time point mix onto a ZORBAX SB-C18, 5 μm, 9.4×50 mm (Agilent) column connected to an Agilent LC-MS (G6130B Single Quad, Agilent Technologies). Reactants were separated from products using a gradient from H2O containing 0.1% TFA or 0.1% formic acid and 5% acetonitrile to 50% acetonitrile, at 1.5 ml/min for 8 min. Peaks with ultra violet (UV) absorbance at 220 and 280 nm were integrated, the area of peaks corresponding to reactant and products was used to calculate the percentage of product formed after a correction for differences in the extinction coefficient of each peptide was applied (ε280-25mer=11,000M-1 cm-1, ε220-25mer=46,000M-1 cm-1, ε280-cyclic=5500M-1 cm-1, ε220-cyclic=34,000M-1 cm-1, and ε280-tail=5500M-1 cm-1). The sum of product+substrate was assumed equal to the total initial amount of substrate, product converted from % to concentration. This value was divided by concentration of enzyme present to yield v/Et (min-1). When enzyme mutants and peptides containing alanine in the core region were tested for activity, higher concentrations 5 μM enzyme and 100 μM substrate were incubated for 1 and 18 h at room temperature. For progress curves with the 35mer substrate, measurements were triplicate and quantification relied on ion counts from mass spectrometry. […] Authentic macrocyclic peptide was quantified by UV absorbance. Data showing products formed after 1 and 16 h with truncated peptides were performed twice. […] Kinetic data were fitted to a Michaelis-Menten equation using GraphPad Prism, and values reported are average and standard error of the mean.

[2] = system: 25mer and 35mer substrates; test: Activity of GmPOPB mutants with 25mer and 35mer substrates; format: biochemical, Galerina marginata; settings: 5 μM GmPOPB, 24 h (16 h elsewhere in the source)
Procedure: as §1, with “Reactions were started by adding GmPOPB (50 nM for GmAMA1_C6S, 1 μM for the 13mer and 14mer, and 20 nM for other substrates) to the assay mixture containing buffer and peptide.” left out, “When enzyme mutants and peptides containing alanine in the core region were tested for activity, higher concentrations 5 μM enzyme and 100 μM substrate were incubated for 1 and 18 h at room temperature.” left out, “mean. […]” for “mean.”
To study other residues involved in hydrolysis and macrocyclisation, additional mutants H698N, R663A, R663Q, R663K, and W695Δ (deletion) were generated. […] H698N was insoluble and not evaluated. […]

presegetalin B1 = biological target: T1, presegetalin B1
T1 chain: GVAWAFQAKDVENASAPV

Molecule: GmPOPB (Galerina marginata CBS 339.88)
- Km [1]: 50 µM
- kcat [1]: 0.3 s⁻¹

B1: S577A: GmPOPB catalytic triad mutant (protein)
chain: MSSVTWAPGNYPSTRRSDHVDTYQSASKGEVPVPDPYQWLEESTDEVDKWTTAQADLAQSYLDQNADIQKLAEKFRASRNYAKFSAPTLLDDGHWYWFYNRGLQSQSVLYRSKEPALPDFSKGDDNVGDVFFDPNVLAADGSAGMVLCKFSPDGKFFAYAVSHLGGDYSTIYVRSTSSPLSQASVAQGVDGRLSDEVKWFKFSTIIWTKDSKGFLYQRYPARERHEGTRSDRNAMMCYHKVGTTQEEDIIVYQDNEHPEWIYGADTSEDGKYLYLYQFKDTSKKNLLWVAELDEDGVKSGIHWRKVVNEYAADYNIITNHGSLVYIKTNLNAPQYKVITIDLSKDEPEIRDFIPEEKDAKLAQVNCANEEYFVAIYKRNVKDEIYLYSKAGVQLTRLAPDFVGAASIANRQKQTHFFLTLSGFNTPGTIARYDFTAPETQRFSILRTTKVNELDPDDFESTQVWYESKDGTKIPMFIVRHKSTKFDGTAAAIQYGYGGFATSADPFFSPIILTFLQTYGAIFAVPSIRGGGEFGEEWHKGGRRETKVNTFDDFIAAAQFLVKNKYAAPGKVAINGAANGGLLVMGSIVRAPEGTFGAAVPEGGVADLLKFHKFTGGQAWISEYGNPSIPEEFDYIYPLSPVHNVRTDKVMPATLITVNIGDGRVVPMHSFKFIATLQHNVPQNPHPLLIKIDKSWLGHGMGKPTDKNVKDAADKWGFIARALGLELKTVE
- activity of GmPOPB mutant (in words) [2]: inactive

B2: D661A: GmPOPB catalytic triad mutant (protein, UniProt H2E7Q8 1-730, looked up, variant D661A)
Dual function …: MSSVTWAPGNYPSTRRSDHVDTYQSASKGEVPVPDPYQWLEESTDEVDKWTTAQADLAQSYLDQNADIQKLAEKFRASRNYAKFSAPTLLDDGHWYWFYNRGLQSQSVLYRSKEPALPDFSKGDDNVGDVFFDPNVLAADGSAGMVLCKFSPDGKFFAYAVSHLGGDYSTIYVRSTSSPLSQASVAQGVDGRLSDEVKWFKFSTIIWTKDSKGFLYQRYPARERHEGTRSDRNAMMCYHKVGTTQEEDIIVYQDNEHPEWIYGADTSEDGKYLYLYQFKDTSKKNLLWVAELDEDGVKSGIHWRKVVNEYAADYNIITNHGSLVYIKTNLNAPQYKVITIDLSKDEPEIRDFIPEEKDAKLAQVNCANEEYFVAIYKRNVKDEIYLYSKAGVQLTRLAPDFVGAASIANRQKQTHFFLTLSGFNTPGTIARYDFTAPETQRFSILRTTKVNELDPDDFESTQVWYESKDGTKIPMFIVRHKSTKFDGTAAAIQYGYGGFATSADPFFSPIILTFLQTYGAIFAVPSIRGGGEFGEEWHKGGRRETKVNTFDDFIAAAQFLVKNKYAAPGKVAINGASNGGLLVMGSIVRAPEGTFGAAVPEGGVADLLKFHKFTGGQAWISEYGNPSIPEEFDYIYPLSPVHNVRTDKVMPATLITVNIGAGRVVPMHSFKFIATLQHNVPQNPHPLLIKIDKSWLGHGMGKPTDKNVKDAADKWGFIARALGLELKTVE
- activity of GmPOPB mutant (in words) [2]: inactive

B3: H698A: GmPOPB catalytic triad mutant (protein, UniProt H2E7Q8 1-730, looked up, variant H698A)
Dual function …: MSSVTWAPGNYPSTRRSDHVDTYQSASKGEVPVPDPYQWLEESTDEVDKWTTAQADLAQSYLDQNADIQKLAEKFRASRNYAKFSAPTLLDDGHWYWFYNRGLQSQSVLYRSKEPALPDFSKGDDNVGDVFFDPNVLAADGSAGMVLCKFSPDGKFFAYAVSHLGGDYSTIYVRSTSSPLSQASVAQGVDGRLSDEVKWFKFSTIIWTKDSKGFLYQRYPARERHEGTRSDRNAMMCYHKVGTTQEEDIIVYQDNEHPEWIYGADTSEDGKYLYLYQFKDTSKKNLLWVAELDEDGVKSGIHWRKVVNEYAADYNIITNHGSLVYIKTNLNAPQYKVITIDLSKDEPEIRDFIPEEKDAKLAQVNCANEEYFVAIYKRNVKDEIYLYSKAGVQLTRLAPDFVGAASIANRQKQTHFFLTLSGFNTPGTIARYDFTAPETQRFSILRTTKVNELDPDDFESTQVWYESKDGTKIPMFIVRHKSTKFDGTAAAIQYGYGGFATSADPFFSPIILTFLQTYGAIFAVPSIRGGGEFGEEWHKGGRRETKVNTFDDFIAAAQFLVKNKYAAPGKVAINGASNGGLLVMGSIVRAPEGTFGAAVPEGGVADLLKFHKFTGGQAWISEYGNPSIPEEFDYIYPLSPVHNVRTDKVMPATLITVNIGDGRVVPMHSFKFIATLQHNVPQNPHPLLIKIDKSWLGAGMGKPTDKNVKDAADKWGFIARALGLELKTVE
- activity of GmPOPB mutant (in words) [2]: inactive

B4: PCY1 (Saponaria vaccaria), wild type (protein)
chain: MATSGFSKPLHYPPVRRDETVVDDYFGVKVADPYRWLEDPNSEETKEFVDNQEKLANSVLEECELIDKFKQKIIDFVNFPRCGVPFRRANKYFHFYNSGLQAQNVFQMQDDLDGKPEVLYDPNLREGGRSGLSLYSVSEDAKYFAFGIHSGLTEWVTIKILKTEDRSYLPDTLEWVKFSPAIWTHDNKGFFYCPYPPLKEGEDHMTRSAVNQEARYHFLGTDQSEDILLWRDLENPAHHLKCQITDDGKYFLLYILDGCDDANKVYCLDLTKLPNGLESFRGREDSAPFMKLIDSFDASYTAIANDGSVFTFQTNKDAPRKKLVRVDLNNPSVWTDLVPESKKDLLESAHAVNENQLILRYLSDVKHVLEIRDLESGALQHRLPIDIGSVDGITARRRDSVVFFKFTSILTPGIVYQCDLKNDPTQLKIFRESVVPDFDRSEFEVKQVFVPSKDGTKIPIFIAARKGISLDGSHPCEMHGYGGFGINMMPTFSASRIVFLKHLGGVFCLANIRGGGEYGEEWHKAGFRDKKQNVFDDFISAAEYLISSGYTKARRVAIEGGSNGGLLVAACINQRPDLFGCAEANCGVMDMLRFHKFTLGYLWTGDYGCSDKEEEFKWLIKYSPIHNVRRPWEQPGNEETQYPATMILTADHDDRVVPLHSFKLLATMQHVLCTSLEDSPQKNPIIARIQRKAAHYGRATMTQIAEVADRYGFMAKALEAPWID
- Km (column head printed as 'Kin (µM)'), single injection kinetic ITC (presegetalin B1): 0.25 µM
- Km (column head printed as 'Kin (µM)'), steady-state kinetics, LC/MS (UV280 nM) (presegetalin B1): 0.45 µM
